Reference: patent US8540999B2, “Allergenic proteins and peptides from Japanese cedar pollen” (Merck Patent GmbH, priority 1991, dated 2013)

Columns and labels:
[1] = tested on: Secondary T cell cultures reactive with Cry j I protein antigen; experiment: In vitro T cell proliferation assay, secondary T cell cultures of 36 Cry j I-allergic subjects, percent T cell reactivity algorithm; assay type: cell-based, human; settings: patient 1308; highest S.I. >= 2.0 recorded per peptide
[2] = tested on: Cry j I reactive T cells; experiment: T cell proliferation assay, Cry j I primed T cell lines (Example 6); assay type: cell-based, human
Procedure: Viable cells were purified by LSM centrifugation and cultured in complete medium supplemented with 5 units recombinant human IL-2/ml and 5 units recombinant human IL-4/ml for up to three weeks until the cells no longer responded to lymphokines and were considered “rested”. The ability of the T cells to proliferate to selected peptides, recombinant Cry j I (rCry j I), purified native Cry j I, or recombinant Amb aI.1 (rAmb aI.1) or a positive control, phyto-hemaglutinin (PHA) was then assessed. For assay, 2×10^4 rested cells were restimulated in the presence of 2×10^4 autologous Epstein-Barr virus (EBV)-transformed B cells (prepared as described below) (gamma-irradiated with 25,000 RADS) with 2-50 μg/ml of selected peptides, Cry j I, purified native Cry j I or rAmb a I.1 or PHA, in a volume of 200 μl complete medium in duplicate or triplicate wells in 96-well round bottom plates for 2-4 days. […] Each well then received 1 μCi tritiated thymidine for 16-20 hours. The counts incorporated were collected onto glass fiber filter mats and processed for liquid scintillation counting. […] The titrations were used to optimize the dose of peptides in T cell assays. The maximum response in a titration of each peptide is expressed as the stimulation index (S.I.). The S.I. is the counts per minute (CPM) incorporated by cells in response to peptide, divided by the CPM incorporated by cells in medium only.
The above procedure was followed with a number of other patients. […] The bars represent the positivity index. Above each bar is the percent of positive responses with an S.I. of at least two to the peptide or protein in the group of patients tested. In parenthesis above each bar are the mean stimulation indices for each peptide or protein for the group of patients tested.
Autologous EBV-transformed cell lines were y-irradiated with 25,000 Rad and used as antigen presenting cells in secondary proliferation assays and secondary bulk stimulations. These EBV-transformed cell lines were made by incubating 5×10^6 PBL with 1 ml of B-59/8 Marmoset cell line (ATCC CRL1612, American Type Culture Collection, Rockville, Md.) conditioned medium in the presence of 1 μg/ml phorbol 12-myristate 13-acetate (PMA) at 37° C. for 60 minutes in 12×75 mm polypropylene round-bottom Falcon snap cap tubes (Becton Dickinson Labware, Lincoln Park, N.J.). These cells were then diluted to 1.25×10^6 cells/ml in RPMI-1640 as described above except supplemented with 10% heat-inactivated fetal bovine serum and cultured in 200 μl aliquots in flat bottom culture plates until visible colonies were detected. They were then transferred to larger wells until the cell lines were established.

[3] = tested on: allergic patient IgE; experiment: Direct ELISA, IgE binding to rCry j I and Cry j I peptides (Example 8); set-up: species or system human
Procedure: The recombinant Cry j I protein (rCry j I), expressed in bacteria and then purified (as described in Example 5), has been examined for IgE reactivity. The first method applied to this examination was direct ELISA where wells were coated with the recombinant Cry j I and IgE binding was assayed on individual patients. FIG. 9 is the graphic representation of this direct ELISA.
To analyze IgE reactivity to selected Cry j I peptides a direct ELISA format was used. ELSIA wells were coated with 25 peptides derived from Cry j I and assayed for IgE binding. FIG. 15a and 15b are graphs of these binding results using PHP (15 patients) as the cedar pollen allergic IgE source. This pool of plasma was formulated for enrichment of IgE that could bind to denatured SPE (as determined by direct ELISA) and therefore increase the chance of reactivity toward the peptides.

[4] = tested on: human allergic IgE; experiment: Capture ELISA with MAb CBF2; assay type: binding; settings: pooled human plasma (15 patients), FIG. 10a
Procedure: Another method of analysis that was applied to the examination of IgE reactivity to the recombinant Cry j I was a capture ELISA. This analysis relies on the use of a defined antibody, in this case CBF2 to bind the antigen and allow for the binding of antibodies to other epitope sites. The format of this capture ELISA is 1) wells are coated with MAb CBF2, 2) antigen or PBS (as one type of negative control) is added and captured by specific interaction with the coated MAb, 3) either the control antibody anti-Amb a I & II (FIG. 10b) or human allergic plasma (FIG. 10a) is added as the detecting antibody, and 4) detection of antibody binding is assayed. FIGS. 10a and 10b are the graphed results of these assays. For the IgE analysis, the pooled human plasma (PHP) (15 patients) was used.

[5] = tested on: human basophil; experiment: Histamine release assay; assay type: cell-based; settings: one Japanese cedar pollen allergic patient, FIG. 11
Procedure: To determine whether a peptide which binds IgE results in the release of mediators, a histamine release assay can be performed using standard reagents and protocols obtained for example, from Amac, Inc. (Westbrook, Me.). Briefly, a buffered solution of a peptide to be tested is combined with an equal volume of whole heparinized blood from an allergic subject. After mixing and incubation, the cells are pelleted and the supernatants are processed an analyzed using a radioimmunoassay to determine the amount of histamine released.
A histamine release assay was performed on one Japanese cedar pollen allergic patient using Japanese cedar pollen SPE, purified native Cry j I and rCry j I as the added antigens. This assay is a measure of IgE reactivity through human basophil mediator release. […] Two possible explanations for this release by the rCry j I are: 1) specific reactivity with a very low proportion of the anti-Cry j I IgE capable of recognizing the recombinant form of Cry j I, or 2) non-specific release caused by low abundance of bacterial contaminants observed only at the highest antigen concentration. […] In addition, the data shown are from single data points at each protein concentration.

[6] = tested on: IgE; experiment: RAST, competition ELISA and Western blotting (data not shown); assay type: binding, human

IgE binding, direct ELISA ([3]; PHP (15 patients), FIG. 15)	IgE reactivity, direct ELISA ([3]; individual patients, FIG. 9)	specific binding of human allergic IgE, capture ELISA [4]	Molecule	STIMULATION INDEX [1]	T cell line response ([2]; panel of twenty-five patients, FIG. 14)	histamine release [5]	percent of positive responses with an S.I. of at least two ([2]; 25 patients / T cell lines, FIG. 14) [%]	T cell proliferative response ([2]; patient #999, FIG. 12)	specific IgE reactivity [6]
			CJ1-30: Cry j I peptide, SEQ ID NO: 55 (CSNWVWQSTQDVFYNGAYFV; listed as Cryptomeria japonica)	0	responded				
does not bind	no IgE reactivity	no indication of any specific binding	rCry j I: recombinant Cry j I protein expressed in bacteria (E. coli) and purified (protein, left off: small tags and cut ends, recombinant Cry j I protein expressed in bacteria (E. coli) and purified) DNPIDSCWRGDSNWAQNRMKLADCAVGFGSSTMGGKGGDLYTVTNSDDDPVNPAPGTLRYGATRDRPLWIIFSGNMNIKLKMPMYIAGYKTFDGRGAQVYIGNGGPCVFIKRVSNVIIHGLYLYGCSTSVLGNVLINESFGVEPVHPQDGDALTLRTATNIWIDHNSFSNSSDGLVDVTLTSTGVTISNNLFFNHHKVMLLGHDDAYSDDKSMKVTVAFNQFGPNCGQRMPRARYGLVHVANNNYDPWTIYAIGGSSNPTILSEGNSFTAPNESYKKQVTIRIGCKTSSSCSNWVWQSTQDVFYNGAYFVSSGKYEGGNIYTKKEAFNVENGNATPQLTKNAGVLTCSLSKRC			only point where there is any measurable histamine release with the Cry j I is at the highest concentration	68.0	responds well	no specific IgE reactivity
